In patent US20030096403A1:

Biological target: surface antigen S of hepatitis B virus (Greencross Co.) (hepatitis B virus)
Test: competitive ELISA: antibody pre-incubated with soluble surface antigen S, then plate coated with surface antigen S

Ka: 4e+09 M⁻¹
B1: humanized antibody HzS-III (antibody, V domains shown)
VH: EVQLVQSGAEVKKPGASVKVSCKASGYTFTDYNVQWVRQAPGKSLEWMGYIYPYSGGTGYSQKFQGRVTLTVDNSASTAYMELSSLRSEDTAVYYCARNYGYDSSAYWGQGTLVTVSS
VL: DIVLTQSPASLAVSPGQRATITCRASESVSNYGINFINWFQQKPGQPPKLLIYTASNKGTGVPARFSGSGSGTDFTLTINPVEAEDTANYFCQQSKEVPYTFGGGTKVEIKR
